Results from the supplement of paper PMC10126150.
± gives the standard deviation of the averaged measurements.

Test system: ATP
Assay: switch fluorescence ratio, 500 uM ATP over buffer (Cy3 cluster intensity, sum of 5 cycles each) (fold (ratio)); higher = stronger signal-on switching upon ATP binding; sequences stand for … in TCGTCGGCAGCGTCAGATGTGTATAAGAGACAGTTTTTTTTTTTTTTTTTTTTTTTTT…TC
Conditions: aptamer strand: ATP DNA aptamer (quencher-CACCTGGGGGAGTATTGCGGAGGAAGG + anchor), 100 nM annealed; ATP concentration: 500 uM
How it was run: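 After annealing to 100 nM quencher-labelled ATP aptamer, Cy3-labelled switching-strand clusters on a modified Illumina MiSeq flow-cell were imaged in selection buffer. A second image followed after 15 min with 500 uM ATP at 22 °C, and five such buffer/ATP cycles were done, each separated by NaOH stripping and re-annealing. The fluorescence ratio, averaged per switch-domain sequence, is summed target-cycle over summed buffer-cycle Cy3 intensity per cluster, with clusters outside 100-1000 RFU excluded.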
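Also: ATP exposure 15 min at 22 °C before imaging.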

| Sequence | switch fluorescence ratio |
| --- | --- |
| CGGGCTGGTG | 1.0093 ± 0.0005 |
| CGGGCTGTGG | 0.992 ± 0.03 |
| CGGGCTTAAG | 1.02 ± 0.037 |
| CGGGCTTGG | 1.03 ± 0.021 |
| CGGGGAAATA | 1.01 ± 0.027 |
| CGGGGAAATC | 1.03 ± 0.035 |
| CGGGGAATGG | 1.01 ± 0.03 |
| CGGGGACGGA | 1.02 ± 0.029 |
| CGGGGAGGCA | 0.997 ± 0.031 |
| CGGGGAGGTC | 1.07 ± 0.072 |
| CGGGGAGTGC | 1.01 ± 0.061 |
| CGGGGATACT | 1.38 ± 0.24 |
| CGGGGATCGG | 0.984 ± 0.011 |
| CGGGGATGTG | 1.02 ± 0.025 |
| CGGGGCAAAG | 1.96 ± 1.6 |
| CGGGGCACAG | 1.005 ± 0.0014 |
| CGGGGCAGAG | 0.991 ± 0.043 |
| CGGGGCGTGC | 1.01 ± 0.029 |
| CGGGGCTTGG | 1.01 ± 0.023 |
| CGGGGGACCG | 1 ± 0.02 |
| CGGGGGAGGA | 0.997 ± 0.011 |
| CGGGGGCAGC | 1.01 ± 0.06 |
| CGGGGGCCAG | 0.994 ± 0.038 |

| Sequence | switch fluorescence ratio |
| --- | --- |
| CGGGGGCGCA | 0.9414 ± 0.007 |
| CGGGGGCGCC | 1.02 ± 0.031 |
| CGGGGGCGGC | 0.974 ± 0.014 |
| CGGGGGCGGG | 0.99 ± 0.042 |
| CGGGGGCTAG | 0.996 ± 0.012 |
| CGGGGGCTTG | 0.975 ± 0.02 |
| CGGGGGGACT | 0.998 ± 0.059 |
| CGGGGGGCAC | 0.999 ± 0.021 |
| CGGGGGGCGT | 0.999 ± 0.021 |
| CGGGGGGGAC | 1.11 ± 0.16 |
| CGGGGGGGAT | 1.02 ± 0.026 |
| CGGGGGGGCC | 0.99 ± 0.042 |
| CGGGGGGGGA | 1.02 ± 0.035 |
| CGGGGGGTCG | 1.04 ± 0.069 |
| CGGGGGGTG | 1.01 ± 0.05 |
| CGGGGGTATG | 0.994 ± 0.034 |
| CGGGGGTCGT | 0.98794 ± 0.00054 |
| CGGGGGTCTG | 1.01 ± 0.028 |
| CGGGGGTGGT | 1.01 ± 0.033 |
| CGGGGGTTAA | 0.9908 ± 0.0021 |
| CGGGGGTTCA | 1.01 ± 0.035 |
| CGGGGGTTGG | 0.999 ± 0.025 |
| CGGGGGTTTC | 1.02 ± 0.023 |

| Sequence | switch fluorescence ratio |
| --- | --- |
| CGGGGGTTTG | 1.01 ± 0.031 |
| CGGGGTAAAG | 0.9787 ± 0.0032 |
| CGGGGTACTT | 1.06 ± 0.056 |
| CGGGGTAGGG | 0.983 ± 0.016 |
| CGGGGTCAAT | 1.85 ± 1.2 |
| CGGGGTCATT | 0.979 ± 0.011 |
| CGGGGTCGGT | 0.963 ± 0.021 |
| CGGGGTGCGT | 1.02 ± 0.037 |
| CGGGGTGCTA | 1.007 ± 0.0077 |
| CGGGGTGGGG | 0.993 ± 0.056 |
| CGGGGTGTGG | 1.01 ± 0.033 |
| CGGGGTTACC | 0.9924 ± 0.0059 |
| CGGGGTTCGC | 1.95 ± 1.3 |
| CGGGGTTGTT | 0.9882 ± 0.0067 |
| CGGGTAAGCC | 0.961 ± 0.027 |
| CGGGTAAGGG | 1.01 ± 0.04 |
| CGGGTAAGTT | 1.09 ± 0.2 |
| CGGGTAATAG | 1.46 ± 0.16 |
| CGGGTACCAG | 1.01 ± 0.043 |
| CGGGTACGTG | 1.02 ± 0.018 |
| CGGGTAGCG | 0.969 ± 0.013 |
| CGGGTAGGGA | 1.01 ± 0.022 |
| CGGGTATGGC | 1.02 ± 0.063 |

| Sequence | switch fluorescence ratio |
| --- | --- |
| CGGGTATTTG | 1.04 ± 0.028 |
| CGGGTCCTAA | 0.9795 ± 0.0078 |
| CGGGTCGAAA | 0.982 ± 0.049 |
| CGGGTCTGCT | 0.985 ± 0.022 |
| CGGGTGCAAA | 1.08 ± 0.016 |
| CGGGTGCGGT | 0.951 ± 0.045 |
| CGGGTGGGG | 1.03 ± 0.071 |
| CGGGTGGTGG | 0.99 ± 0.017 |
| CGGGTGTGAC | 1.02 ± 0.023 |
| CGGGTGTGGG | 1.009 ± 0.0012 |
| CGGGTTACGG | 0.9728 ± 0.0055 |
| CGGGTTAGAG | 0.968 ± 0.019 |
| CGGGTTGGTT | 1.032 ± 0.0056 |
| CGGGTTGTAG | 1 ± 0.036 |
| CGGGTTGTCA | 0.9969 ± 0.0072 |
| CGGGTTGTCG | 1.02 ± 0.05 |
| CGGGTTTACG | 1 ± 0.025 |
| CGGTAAACAC | 1.06 ± 0.047 |
| CGGTAACCTT | 1.31 ± 0.44 |
| CGGTAACTAT | 1.02 ± 0.017 |
| CGGTAAGGGC | 0.966 ± 0.038 |
| CGGTAATTGG | 1.01 ± 0.02 |
| CGGTACGGGG | 0.979 ± 0.018 |

| Sequence | switch fluorescence ratio |
| --- | --- |
| CGGTACTATA | 1.055 ± 0.0086 |
| CGGTAGAGTA | 0.98 ± 0.062 |
| CGGTAGATGT | 1 ± 0.034 |
| CGGTAGCTCT | 0.989 ± 0.037 |
| CGGTAGGAAC | 1.01 ± 0.028 |
| CGGTAGGCTT | 0.996 ± 0.037 |
| CGGTAGTGAG | 1.04 ± 0.014 |
| CGGTAGTTGG | 0.983 ± 0.019 |
| CGGTATAACT | 1 ± 0.011 |
| CGGTATAGTA | 0.983 ± 0.032 |
| CGGTATCTAT | 0.96436 ± 0.00057 |
| CGGTATGTAT | 1.02 ± 0.042 |
| CGGTCGGGGT | 0.995 ± 0.045 |
| CGGTCGGGTA | 1.01 ± 0.031 |
| CGGTCGGGTC | 1.01 ± 0.028 |
| CGGTCGTAAC | 1.04 ± 0.018 |
| CGGTCTGGTC | 0.987 ± 0.018 |
| CGGTCTGTTA | 1.04 ± 0.11 |
| CGGTCTTGGG | 0.9536 ± 0.0085 |
| CGGTGAAGAA | 0.989 ± 0.013 |
| CGGTGAATCT | 1.01 ± 0.03 |
| CGGTGACGGG | 0.959 ± 0.014 |
| CGGTGACTTG | 1.01 ± 0.017 |

| Sequence | switch fluorescence ratio |
| --- | --- |
| CGGTGATCGT | 1.02 ± 0.015 |
| CGGTGATGGG | 1.01 ± 0.031 |
| CGGTGATTTT | 1.02 ± 0.03 |
| CGGTGCATGA | 1.027 ± 0.0092 |
| CGGTGCGCTG | 0.9964 ± 0.0016 |
| CGGTGCGGGA | 1.01 ± 0.011 |
| CGGTGGACGA | 0.9977 ± 0.005 |
| CGGTGGACTG | 1.07 ± 0.014 |
| CGGTGGCAGC | 0.983 ± 0.038 |
| CGGTGGGCGC | 0.974 ± 0.091 |
| CGGTGGTGGC | 1.13 ± 0.015 |
| CGGTGTACTG | 0.992 ± 0.013 |
| CGGTGTAGGG | 0.99 ± 0.03 |
| CGGTGTAGTC | 1.012 ± 0.01 |
| CGGTGTGACA | 0.993 ± 0.051 |
| CGGTGTGGGA | 0.996 ± 0.044 |
| CGGTGTGGGT | 1.03 ± 0.0023 |
| CGGTGTTGGA | 0.978 ± 0.039 |
| CGGTTAAACG | 0.975 ± 0.019 |
| CGGTTAAGAT | 0.993 ± 0.012 |
| CGGTTACATT | 1 ± 0.014 |
| CGGTTACCAG | 1.03 ± 0.013 |
| CGGTTAGATG | 1 ± 0.047 |

| Sequence | switch fluorescence ratio |
| --- | --- |
| CGGTTAGGGG | 0.9829 ± 0.0021 |
| CGGTTAGTTT | 0.97 ± 0.034 |
| CGGTTATAAG | 0.9679 ± 0.00054 |
| CGGTTATCTA | 1.01 ± 0.054 |
| CGGTTATTGG | 0.958 ± 0.041 |
| CGGTTCAGTT | 1.036 ± 0.0022 |
| CGGTTCCTAA | 0.994 ± 0.016 |
| CGGTTGATGG | 0.969 ± 0.074 |
| CGGTTGGCGA | 1.02 ± 0.011 |
| CGGTTGTGAC | 0.994 ± 0.027 |
| CGGTTGTTGG | 0.9787 ± 0.0058 |
| CGGTTTATAA | 0.981 ± 0.013 |
| CGGTTTCAGT | 0.996 ± 0.023 |
| CGGTTTCGTG | 0.995 ± 0.018 |
| CGGTTTTATC | 1.01 ± 0.034 |
| CGGTTTTCAT | 0.984 ± 0.019 |
| CGGTTTTTT | 1 ± 0.021 |
| CGTAAAAAT | 1.01 ± 0.027 |
| CGTAAAAATG | 1.01 ± 0.024 |
